In publication PMC6174099:

Target: T1, Heat shock factor 1 (HSF1), wild-type, monomer (human), Q00613
T1 chain: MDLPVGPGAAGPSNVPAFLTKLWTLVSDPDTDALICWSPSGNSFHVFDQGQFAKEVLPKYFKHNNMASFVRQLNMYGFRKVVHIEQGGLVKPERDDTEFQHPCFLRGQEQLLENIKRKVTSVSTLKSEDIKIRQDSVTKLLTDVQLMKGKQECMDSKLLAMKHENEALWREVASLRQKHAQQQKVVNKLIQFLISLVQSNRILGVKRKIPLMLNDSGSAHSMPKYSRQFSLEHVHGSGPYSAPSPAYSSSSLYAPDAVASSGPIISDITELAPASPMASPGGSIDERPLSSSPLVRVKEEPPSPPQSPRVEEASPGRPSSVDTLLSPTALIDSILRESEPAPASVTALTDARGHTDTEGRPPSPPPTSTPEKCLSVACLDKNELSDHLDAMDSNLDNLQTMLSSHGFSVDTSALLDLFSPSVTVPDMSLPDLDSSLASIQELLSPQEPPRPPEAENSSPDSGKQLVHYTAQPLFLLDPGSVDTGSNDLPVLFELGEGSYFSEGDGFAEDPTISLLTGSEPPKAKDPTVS
Assay: SEC
Conditions: remark: other sources report otherwise

- stoichiometry N: 3
B1: Heat shock factor 1 (HSF1), wild-type, monomer, Q00613 1-529 (natural protein)
chain: MDLPVGPGAAGPSNVPAFLTKLWTLVSDPDTDALICWSPSGNSFHVFDQGQFAKEVLPKYFKHNNMASFVRQLNMYGFRKVVHIEQGGLVKPERDDTEFQHPCFLRGQEQLLENIKRKVTSVSTLKSEDIKIRQDSVTKLLTDVQLMKGKQECMDSKLLAMKHENEALWREVASLRQKHAQQQKVVNKLIQFLISLVQSNRILGVKRKIPLMLNDSGSAHSMPKYSRQFSLEHVHGSGPYSAPSPAYSSSSLYAPDAVASSGPIISDITELAPASPMASPGGSIDERPLSSSPLVRVKEEPPSPPQSPRVEEASPGRPSSVDTLLSPTALIDSILRESEPAPASVTALTDARGHTDTEGRPPSPPPTSTPEKCLSVACLDKNELSDHLDAMDSNLDNLQTMLSSHGFSVDTSALLDLFSPSVTVPDMSLPDLDSSLASIQELLSPQEPPRPPEAENSSPDSGKQLVHYTAQPLFLLDPGSVDTGSNDLPVLFELGEGSYFSEGDGFAEDPTISLLTGSEPPKAKDPTVS
